Legend:
[1] = target: T1, ANGPTL3蛋白(10770-H08B，义翘神州) (UniProt Q9Y5C1 17-460); assay: ELISA, ANGPTL3 coated at graded concentrations (0.2-0 μg/mL), antibody 1 μg/mL, OD450
T1 construct: Bought protein; also called 血管生成素样蛋白3; 抗原ANGPTL3
T1 sequence (looked up): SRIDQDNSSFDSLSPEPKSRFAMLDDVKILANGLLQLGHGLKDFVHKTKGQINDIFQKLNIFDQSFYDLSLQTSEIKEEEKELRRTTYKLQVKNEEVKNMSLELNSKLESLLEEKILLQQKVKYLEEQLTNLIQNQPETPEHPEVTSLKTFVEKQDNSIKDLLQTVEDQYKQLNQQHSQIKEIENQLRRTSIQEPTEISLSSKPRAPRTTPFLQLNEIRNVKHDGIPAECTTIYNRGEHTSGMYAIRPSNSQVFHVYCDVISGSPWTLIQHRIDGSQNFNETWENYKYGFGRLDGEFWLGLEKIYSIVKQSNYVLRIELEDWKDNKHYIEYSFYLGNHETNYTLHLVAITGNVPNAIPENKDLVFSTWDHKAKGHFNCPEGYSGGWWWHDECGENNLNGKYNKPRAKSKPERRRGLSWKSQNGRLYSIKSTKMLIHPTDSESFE

[2] = target: T1, ANGPTL3蛋白(10770-H08B，义翘神州); assay: cell-based or functional assay
[3] = target: T1, ANGPTL3蛋白(10770-H08B，义翘神州); assay: SPR, BIAcore 8K, antibody captured by anti-human IgG Fc on CM5, ANGPTL3 as analyte, 1:1 model

- EC50 [1]: 0.162 mg/L
- 酶活检测EC50 (LPL, DGGR底物, 荧光值) [2]: 95.1 µg/mL
- Kd [3]: 0.452 nM
- koff [3]: 0.000275 s⁻¹
- kon [3]: 609000 M⁻¹ s⁻¹
B1: AP-REGN-IgG4 (antibody, V domains shown)
VH: EVQLVESGGGVIQPGGSLRLSCAASGFTFDDYAMNWVRQGPGKGLEWVSAISGDGGSTYYADSVKGRFTISRDNSKNSLYLQMNSLRAEDTAFFYCAKDLRNTIFGVVIPDAFDIWGQGTMVTVSS
VL: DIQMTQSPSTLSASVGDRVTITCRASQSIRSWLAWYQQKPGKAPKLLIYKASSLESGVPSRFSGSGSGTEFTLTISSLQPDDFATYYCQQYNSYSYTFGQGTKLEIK
notes: IgG4 by its name; also called Evinacumab; evinacumab

Source: CN112062844A (SHANDONG BOAN BIOTECHNOLOGY CO LTD, dated 2020)
